Source: publication PMC11793827 (2025)

B1: AP1C3 (VHH)
VHH: EVQLQASGGGFVQPGGSLRLSCAASGRTYRGYSMGWFRQAPGKEREFVSAISSWSDDWTAYADSVKGRFTISRDNSKNTVYLQMNSLRAEDTATYYCAWQYIDEIQYYWGQGTQVTVSS
B2: BP2A6 (VHH)
VHH: EVQLQASGGGFVQPGGSLRLSCAASGQTFSHYIMGWFRQAPGKEREFVSAISAGQGHATYYADSVKGRFTISRDNSKNTVYLQMNSLRAEDTATYYCAKYQDTIAPLYWGQGTQVTVSS
B3: DP4F2 (VHH)
VHH: EVQLQASGGGFVQPGGSLRLSCAASGTTYSERVMGWFRQAPGKEREFVSAISSGQSDQTYYADSVKGRFTISRDNSKNTVYLQMNSLRAEDTATYYCAPFAGDANLPREWYWGQGTQVTVSS
B4: AP1A5 (Fc fusion)
chain: EVQLQASGGGFVQPGGSLRLSCAASGSTASHYTMGWFRQAPGKEREFVSAISSGRDHAKQYADSVKGRFTISRDNSKNTVYLQMNSLRAEDTATYYCAYEEINATQKDTLYWGQGTQVTVSS
B5: AP1D4 (Fc fusion)
chain: EVQLQASGGGFVQPGGSLRLSCAASGHTFDAHRMGWFRQAPGKEREFVSAISSWGQSSTYYADSVKGRFTISRDNSKNTVYLQMNSLRAEDTATYYCAQTDEGNQYVYWGQGTQVTVSS

Target: WT SARS-CoV-2 RBD (SARS-CoV-2, UniProt P0DTC2 14-1211)
Experiment: ELISA

Binder | Kd
B1 | 0.08 nM
B2 | 0.06 nM
B3 | 10.7 nM
B4 | 1.19 nM
B5 | 0.97 nM
